Test results as given in PMC10783083, “Val43 residue of NsrR is crucial for the nitric oxide response of Salmonella Typhimurium”.

How the values were obtained:
NsrR V43A = NsrR V43A (Salmonella enterica serovar Typhimurium …, UniProt Q8ZKA3 1-141, V43A); assay: EMSA; no NO; 0.0625-4 uM protein; stronger than WT; settings: protein: recombinant; tags: N-terminal His (pET28a); chain copies: 2; label: 32P (5' by T4 PNK); blunt
[1] = molecular target: NsrR V43A, in vitro translated (Salmonella enterica serovar Typhimurium …, UniProt Q8ZKA3 1-141, V43A); assay: EMSA; 2 uM; clear shift; settings: protein: ivt; tags: N-terminal His (pET28a); chain copies: 2; label: 32P (5' by T4 PNK); blunt

B1: hmp probe (dsDNA)
DNA 1: AAGATGCATTTGATATACATCATT
DNA 2: AATGATGTATATCAAATGCATCTT
B1: binds (NsrR V43A); binds [1].
